Measurements published in publication PMC12429063, “The BUB1 and BUBR1 paralogs scaffold the kinetochore fibrous corona” (Science Advances, 2025).

Legend:
[1] = molecular target: T1, mCherry-tagged ROD-Zwilch-ZW10 (RZZ) complex, wild type (UniProt P50748 1-2209; Q9H900 1-591; O43264 1-779); assay: pull-down; GST-BUB1 baits on GSH beads, no phosphorylation step; 50 mM Hepes pH 8.0, 100 mM NaCl, 1 mM TCEP; beads 2 hours at 4°C; SDS-PAGE, Coomassie or in-gel fluorescence; conditions: both partners purified
T1 construct: ROD, subunit of the RZZ complex; Zwilch, subunit of the RZZ complex; ZW10, subunit of the RZZ complex; also called mCherry-RZZ; mCherry-RZZ^WT; source: expressed and purified using the biGBac system, as previously described; copies: 2 + 2 + 2
T1 sequence (P50748 whole entry, chain 1 of 3): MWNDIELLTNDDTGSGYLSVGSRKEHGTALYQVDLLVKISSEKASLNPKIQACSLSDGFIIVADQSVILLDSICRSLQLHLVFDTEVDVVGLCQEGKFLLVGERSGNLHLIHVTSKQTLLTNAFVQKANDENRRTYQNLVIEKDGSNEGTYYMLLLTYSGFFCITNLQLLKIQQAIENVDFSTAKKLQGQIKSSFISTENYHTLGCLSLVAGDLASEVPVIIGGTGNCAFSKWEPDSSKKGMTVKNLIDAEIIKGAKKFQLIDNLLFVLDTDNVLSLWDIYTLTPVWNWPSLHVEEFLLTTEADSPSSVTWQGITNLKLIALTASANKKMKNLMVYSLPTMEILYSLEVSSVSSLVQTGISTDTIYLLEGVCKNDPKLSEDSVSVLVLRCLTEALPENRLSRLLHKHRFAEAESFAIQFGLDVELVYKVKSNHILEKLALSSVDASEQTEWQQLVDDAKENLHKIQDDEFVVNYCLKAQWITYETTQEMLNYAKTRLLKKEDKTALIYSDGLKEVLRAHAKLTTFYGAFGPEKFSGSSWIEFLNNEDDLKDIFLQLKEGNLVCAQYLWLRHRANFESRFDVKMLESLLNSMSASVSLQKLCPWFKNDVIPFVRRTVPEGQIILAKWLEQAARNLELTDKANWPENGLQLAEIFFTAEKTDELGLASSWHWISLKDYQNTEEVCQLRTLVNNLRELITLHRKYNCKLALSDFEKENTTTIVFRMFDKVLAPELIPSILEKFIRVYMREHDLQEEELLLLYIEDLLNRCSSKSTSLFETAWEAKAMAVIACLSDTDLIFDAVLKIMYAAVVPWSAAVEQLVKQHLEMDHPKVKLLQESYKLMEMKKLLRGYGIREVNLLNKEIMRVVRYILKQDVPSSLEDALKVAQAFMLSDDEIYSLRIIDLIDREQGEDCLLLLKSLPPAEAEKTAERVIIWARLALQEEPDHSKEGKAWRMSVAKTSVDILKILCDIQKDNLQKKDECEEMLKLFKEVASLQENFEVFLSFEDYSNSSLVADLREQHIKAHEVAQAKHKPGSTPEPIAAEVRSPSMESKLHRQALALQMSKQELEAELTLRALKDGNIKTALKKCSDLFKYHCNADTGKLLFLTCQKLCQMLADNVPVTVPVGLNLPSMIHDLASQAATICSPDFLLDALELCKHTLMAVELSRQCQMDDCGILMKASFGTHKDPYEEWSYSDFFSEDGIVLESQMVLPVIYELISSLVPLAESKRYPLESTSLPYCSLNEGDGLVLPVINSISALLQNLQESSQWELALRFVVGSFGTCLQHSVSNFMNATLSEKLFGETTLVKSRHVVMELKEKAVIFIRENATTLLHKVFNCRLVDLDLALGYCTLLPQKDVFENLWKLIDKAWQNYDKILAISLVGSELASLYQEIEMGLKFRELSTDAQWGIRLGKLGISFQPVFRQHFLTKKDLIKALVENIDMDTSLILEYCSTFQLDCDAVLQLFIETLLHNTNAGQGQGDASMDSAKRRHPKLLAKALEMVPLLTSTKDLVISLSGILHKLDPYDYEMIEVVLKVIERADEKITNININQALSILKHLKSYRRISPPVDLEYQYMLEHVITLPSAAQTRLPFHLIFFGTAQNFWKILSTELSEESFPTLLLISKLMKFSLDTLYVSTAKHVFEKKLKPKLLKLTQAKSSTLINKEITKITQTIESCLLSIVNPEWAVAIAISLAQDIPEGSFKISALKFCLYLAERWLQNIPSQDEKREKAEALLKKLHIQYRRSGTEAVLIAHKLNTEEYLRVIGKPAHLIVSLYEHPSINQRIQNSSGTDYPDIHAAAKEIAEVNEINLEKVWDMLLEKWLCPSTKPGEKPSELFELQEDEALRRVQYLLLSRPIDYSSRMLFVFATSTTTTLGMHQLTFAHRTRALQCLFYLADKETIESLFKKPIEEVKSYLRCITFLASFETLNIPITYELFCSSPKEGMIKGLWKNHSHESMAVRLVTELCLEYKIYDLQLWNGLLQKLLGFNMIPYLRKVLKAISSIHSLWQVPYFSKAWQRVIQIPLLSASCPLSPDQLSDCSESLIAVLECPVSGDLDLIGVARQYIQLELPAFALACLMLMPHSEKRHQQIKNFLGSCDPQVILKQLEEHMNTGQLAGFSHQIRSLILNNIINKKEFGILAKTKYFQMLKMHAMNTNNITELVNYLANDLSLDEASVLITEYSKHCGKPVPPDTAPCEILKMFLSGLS
T1 sequence (Q9H900 whole entry, chain 2 of 3): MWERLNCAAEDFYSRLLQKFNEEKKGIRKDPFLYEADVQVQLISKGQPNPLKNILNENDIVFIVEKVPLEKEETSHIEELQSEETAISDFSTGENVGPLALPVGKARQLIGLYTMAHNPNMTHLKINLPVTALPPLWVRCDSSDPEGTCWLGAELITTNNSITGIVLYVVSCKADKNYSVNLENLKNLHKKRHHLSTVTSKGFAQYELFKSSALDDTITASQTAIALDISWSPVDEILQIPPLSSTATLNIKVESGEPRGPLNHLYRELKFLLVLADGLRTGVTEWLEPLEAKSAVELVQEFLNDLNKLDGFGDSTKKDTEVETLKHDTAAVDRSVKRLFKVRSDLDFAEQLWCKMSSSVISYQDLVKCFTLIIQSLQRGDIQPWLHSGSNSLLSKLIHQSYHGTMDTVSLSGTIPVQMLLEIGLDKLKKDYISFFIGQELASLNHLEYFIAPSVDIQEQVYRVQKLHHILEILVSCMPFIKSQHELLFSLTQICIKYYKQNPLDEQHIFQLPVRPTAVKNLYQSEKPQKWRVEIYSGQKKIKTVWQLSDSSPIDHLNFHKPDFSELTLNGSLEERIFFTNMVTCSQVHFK
T1 sequence (O43264 whole entry, chain 3 of 3): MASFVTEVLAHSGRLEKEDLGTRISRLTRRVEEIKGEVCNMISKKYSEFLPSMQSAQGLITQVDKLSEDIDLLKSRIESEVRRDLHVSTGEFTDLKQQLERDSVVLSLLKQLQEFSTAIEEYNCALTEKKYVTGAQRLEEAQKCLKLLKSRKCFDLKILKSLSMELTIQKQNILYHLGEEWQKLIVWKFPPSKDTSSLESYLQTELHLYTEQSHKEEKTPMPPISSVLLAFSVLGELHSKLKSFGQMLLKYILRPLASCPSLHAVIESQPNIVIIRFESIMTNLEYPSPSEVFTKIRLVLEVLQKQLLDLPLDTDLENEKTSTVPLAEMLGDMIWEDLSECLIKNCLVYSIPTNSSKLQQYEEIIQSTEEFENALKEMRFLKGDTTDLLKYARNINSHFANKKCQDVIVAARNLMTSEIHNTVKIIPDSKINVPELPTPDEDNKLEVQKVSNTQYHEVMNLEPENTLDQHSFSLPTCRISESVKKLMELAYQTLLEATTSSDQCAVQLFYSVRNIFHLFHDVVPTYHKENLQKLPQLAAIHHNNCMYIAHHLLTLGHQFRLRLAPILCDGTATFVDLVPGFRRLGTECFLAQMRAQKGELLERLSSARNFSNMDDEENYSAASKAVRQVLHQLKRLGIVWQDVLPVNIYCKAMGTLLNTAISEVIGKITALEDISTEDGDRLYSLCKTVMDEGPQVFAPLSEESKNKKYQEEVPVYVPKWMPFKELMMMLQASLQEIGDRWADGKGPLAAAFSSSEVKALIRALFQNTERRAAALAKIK

[2] = molecular target: T2, RZZS rings: mCherry-RZZ polymerized with farnesylated GFP-Spindly in the presence of MPS1 kinase domain (UniProt P50748 1-2209; Q9H900 1-591; O43264 1-779; Q96EA4 1-605, incubated with MPS1 kinase domain and ATP (the paper names T13 and S15 of ROD as the MPS1 sites) | farnesylated); assay: co-sedimentation; pelleting assay: polymerized RZZS incubated with preys 2 hours at 20°C, 40% glycerol cushion, 100,000g 45 min at 20°C; 50 mM Hepes pH 8, 100 mM NaCl, 2 mM MgCl2, 1 mM TCEP; conditions: both partners purified
T2 construct: ROD, subunit of the RZZ complex; Zwilch, subunit of the RZZ complex; ZW10, subunit of the RZZ complex; Spindly, dynein-dynactin adaptor; A polymer; also called polymerized RZZS; RZZS filaments; copies: + + +
T2 sequence (P50748 whole entry, chain 1 of 4, the tested form may be a part): as the sequence (P50748 whole entry, chain 1 of 3) above
T2 sequence (Q9H900 whole entry, chain 2 of 4, the tested form may be a part): as the sequence (Q9H900 whole entry, chain 2 of 3) above
T2 sequence (O43264 whole entry, chain 3 of 4, the tested form may be a part): as the sequence (O43264 whole entry, chain 3 of 3) above
T2 sequence (Q96EA4 whole entry, chain 4 of 4, the tested form may be a part): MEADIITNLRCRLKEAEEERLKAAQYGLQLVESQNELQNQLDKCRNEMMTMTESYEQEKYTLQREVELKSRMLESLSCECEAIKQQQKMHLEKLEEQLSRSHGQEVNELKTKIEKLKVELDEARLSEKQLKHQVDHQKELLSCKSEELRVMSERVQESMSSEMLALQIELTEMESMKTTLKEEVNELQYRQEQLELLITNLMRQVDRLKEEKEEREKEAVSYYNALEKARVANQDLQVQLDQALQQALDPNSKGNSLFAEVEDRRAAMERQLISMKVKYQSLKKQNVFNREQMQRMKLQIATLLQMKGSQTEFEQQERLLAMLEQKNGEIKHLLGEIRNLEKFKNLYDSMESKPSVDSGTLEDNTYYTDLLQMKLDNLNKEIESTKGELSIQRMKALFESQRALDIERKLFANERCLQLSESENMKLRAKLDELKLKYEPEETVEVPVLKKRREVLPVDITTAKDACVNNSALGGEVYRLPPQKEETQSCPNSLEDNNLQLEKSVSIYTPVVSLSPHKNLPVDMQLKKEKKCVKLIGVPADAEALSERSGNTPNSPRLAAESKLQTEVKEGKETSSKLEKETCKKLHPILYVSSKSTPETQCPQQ

B1: GST-BUB1^467-521 (domain or fragment, human, UniProt O43683 467-521, looked up)
chain: ALGFIMNMFQAPTLPDISDDKDEWQSLDQNEDAFEAQFQKNVRSSGAWGVNKIIS
notes: source: E. coli BL21 CodonPlus, purified (GSTrap, SEC); not shown: GST, N-terminal, kept
**Q.** What does the source list for B1?
**A.** binding result [1]: binds; binding result [2]: binds
